{
  "source": "paper PMC8406365",
  "about": "(Acta Biochimica et Biophysica Sinica, 2021)",
  "binders": {"B1": {"name": "ATP synthase subunit (ATP5F1A) (natural protein, human (endogenous in LO2), UniProt P25705 44-553, looked up)", "chain": "QKTGTAEMSSILEERILGADTSVDLEETGRVLSIGDGIARVHGLRNVQAEEMVEFSSGLKGMSLNLEPDNVGVVVFGNDKLIKEGDIVKRTGAIVDVPVGEELLGRVVDALGNAIDGKGPIGSKTRRRVGLKAPGIIPRISVREPMQTGIKAVDSLVPIGRGQRELIIGDRQTGKTSIAIDTIINQKRFNDGSDEKKKLYCIYVAIGQKRSTVAQLVKRLTDADAMKYTIVVSATASDAAPLQYLAPYSGCSMGEYFRDNGKHALIIYDDLSKQAVAYRQMSLLLRRPPGREAYPGDVFYLHSRLLERAAKMNDAFGGGSLTALPVIETQAGDVSAYIPTNVISITDGQIFLETELFYKGIRPAINVGLSVSRVGSAAQTRAMKQVAGTMKLELAQYREVAAFAQFGSDLDAATQQLLSRGVRLTELLKQGQYSPMAIEEQVAVIYAGVRGYLDKLEPSKITKFENAFLSHVVSQHQALLGTIRADGKISEQSDAKLKEIVTNFLAGFEA"}},
  "target": "SENP3 (endogenous, LO2 hepatocytes) (human (endogenous in LO2), UniProt Q9H4L4 1-574)",
  "sequence (Q9H4L4 whole entry)": "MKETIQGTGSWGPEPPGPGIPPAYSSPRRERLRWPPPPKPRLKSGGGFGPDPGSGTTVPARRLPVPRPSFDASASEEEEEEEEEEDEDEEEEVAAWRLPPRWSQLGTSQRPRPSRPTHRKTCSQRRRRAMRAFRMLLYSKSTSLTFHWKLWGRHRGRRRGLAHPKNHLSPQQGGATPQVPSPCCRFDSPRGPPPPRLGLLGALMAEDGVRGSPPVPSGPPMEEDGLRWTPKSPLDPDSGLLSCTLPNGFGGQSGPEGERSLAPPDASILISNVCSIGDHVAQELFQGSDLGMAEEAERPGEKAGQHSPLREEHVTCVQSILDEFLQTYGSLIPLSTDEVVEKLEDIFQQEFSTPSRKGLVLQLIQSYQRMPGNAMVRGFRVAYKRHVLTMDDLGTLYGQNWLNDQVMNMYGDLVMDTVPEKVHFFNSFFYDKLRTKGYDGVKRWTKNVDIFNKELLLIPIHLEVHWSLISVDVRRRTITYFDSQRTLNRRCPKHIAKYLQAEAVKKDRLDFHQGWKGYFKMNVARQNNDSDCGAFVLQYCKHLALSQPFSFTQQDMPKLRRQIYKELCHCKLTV",
  "test": "FRET or BRET",
  "data": [
    {"binder": "B1", "values": [
      {"measurement": "FRET efficiency", "value": "~25", "unit": "%"}
    ]}
  ]
}
